IC50 and EC50 data for 19 molecules are collected here from patent US20240116985A1 (published 2024).

Assay [1] concerns the target T1, full-length beta-Catenin (Uniprot ID P35222) (Homo sapiens (Human), UniProt P35222 1-781).
T1 construct: also called bCat; B-Catenin
T1 sequence: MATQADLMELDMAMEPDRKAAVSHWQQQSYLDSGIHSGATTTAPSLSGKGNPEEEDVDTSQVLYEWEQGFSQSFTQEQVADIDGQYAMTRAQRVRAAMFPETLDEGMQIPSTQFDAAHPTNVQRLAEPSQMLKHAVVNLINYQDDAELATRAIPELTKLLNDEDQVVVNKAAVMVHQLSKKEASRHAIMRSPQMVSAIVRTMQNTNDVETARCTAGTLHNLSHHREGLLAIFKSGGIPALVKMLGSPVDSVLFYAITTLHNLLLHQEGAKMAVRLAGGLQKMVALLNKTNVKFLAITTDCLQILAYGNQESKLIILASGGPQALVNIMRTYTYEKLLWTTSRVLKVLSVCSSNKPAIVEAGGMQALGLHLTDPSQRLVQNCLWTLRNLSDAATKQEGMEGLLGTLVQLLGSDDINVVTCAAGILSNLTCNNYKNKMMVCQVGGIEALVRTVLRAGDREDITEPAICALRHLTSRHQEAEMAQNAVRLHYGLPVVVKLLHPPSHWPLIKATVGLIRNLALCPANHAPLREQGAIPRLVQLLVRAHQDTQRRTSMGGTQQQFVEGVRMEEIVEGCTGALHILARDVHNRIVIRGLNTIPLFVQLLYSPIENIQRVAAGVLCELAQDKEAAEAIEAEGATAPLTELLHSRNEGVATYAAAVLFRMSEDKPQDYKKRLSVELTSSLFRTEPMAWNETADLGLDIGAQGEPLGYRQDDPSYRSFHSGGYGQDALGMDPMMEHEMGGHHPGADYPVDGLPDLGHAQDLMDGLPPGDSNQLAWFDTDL
The assay is described as follows: fluorescence polarization competition vs 5FAM-TCF4(10-53) on full-length beta-catenin. The protocol: (§1) The plate was incubated protected from light for 60 minutes at 20° C. prior to read. Reads were performed on a CLARIOstar plate reader (BMG Labtech) in duplicate, and data were fitted to a 1:1 binding model with hill slope using an in-house script. All provided concentrations are final concentrations.

The target in assay [2] is T2, full-length beta-Catenin (Uniprot ID P35222) (Homo sapiens (Human), UniProt P35222 1-781).
T2 construct: Used full-length in the FP and AlphaScreen assays; also called B-Catenin; bCat
T2 sequence: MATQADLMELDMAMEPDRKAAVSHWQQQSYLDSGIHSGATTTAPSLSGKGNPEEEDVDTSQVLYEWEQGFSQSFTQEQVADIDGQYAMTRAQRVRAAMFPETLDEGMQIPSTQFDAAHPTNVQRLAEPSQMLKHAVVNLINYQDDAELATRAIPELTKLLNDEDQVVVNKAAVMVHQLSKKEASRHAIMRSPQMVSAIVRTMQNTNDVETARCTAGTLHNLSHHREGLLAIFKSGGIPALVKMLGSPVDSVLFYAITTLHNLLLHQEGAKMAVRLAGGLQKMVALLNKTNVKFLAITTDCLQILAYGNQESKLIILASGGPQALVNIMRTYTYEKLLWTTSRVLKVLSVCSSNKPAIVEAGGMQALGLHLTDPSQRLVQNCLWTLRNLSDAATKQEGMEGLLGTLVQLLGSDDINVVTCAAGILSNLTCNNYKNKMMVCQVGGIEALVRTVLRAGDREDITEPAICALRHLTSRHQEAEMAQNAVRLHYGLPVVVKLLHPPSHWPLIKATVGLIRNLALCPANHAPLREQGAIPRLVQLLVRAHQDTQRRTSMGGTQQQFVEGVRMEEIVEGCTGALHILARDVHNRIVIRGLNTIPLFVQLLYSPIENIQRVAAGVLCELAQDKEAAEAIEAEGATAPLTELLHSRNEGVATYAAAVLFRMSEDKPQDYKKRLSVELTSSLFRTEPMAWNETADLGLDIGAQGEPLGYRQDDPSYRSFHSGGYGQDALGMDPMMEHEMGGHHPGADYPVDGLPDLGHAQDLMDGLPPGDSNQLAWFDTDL
The assay is described as follows: fluorescence polarization competition; full-length beta-catenin + 5FAM-TCF4(10-53) probe as competitor; peptide titrated. The protocol:
as §1

Assay [3] has as its target T2, full-length beta-Catenin (Uniprot ID …). Put plainly: AlphaScreen (nickel chelate) competition; full-length beta-catenin + biotin-TCF4(10-53) probe as competitor; peptide titrated. The protocol: Equal volume of the titrated peptide was added to the plate and incubated for 15 minutes at 20° C. Then 4 uL of donor and 4 uL acceptor beads at 10 ug/mL were added to the plate, for a 16 uL reaction pool and protected from light for 60 minutes at 20° C. prior to read. Reads were performed on a CLARIOstar plate reader (BMG Labtech) in duplicate, and data were fitted to a 1:1 binding model with hill slope using an in-house script. All provided concentrations are final concentrations.

Starred links: 1 amine or outer side, 2 acyl side, 3 side chain; linkers in the order of their positions; H or OH if unused. Positions of bridges follow the written chain, without caps; N, C: chain ends. Non-standard residues stand in square brackets, D forms with d. Primed or numbered codes have the meaning given here. B5(16) = 2-amino-2-(pent-4-en-1-yl)hept-6-enoic acid = 2,2-bis(4-pentenyl)glycine (stitching residue), C=CCCCC(CCCC=C)(N[*:1])C(=O)[*:2]; B5(4) = 2,2-bis(4-pentenyl)glycine = 2-amino-2-(pent-4-en-1-yl)hept-6-enoic acid (stitching residue), C=CCCCC(CCCC=C)(N[*:1])C(=O)[*:2]; B5(5) = 2,2-bis(4-pentenyl)glycine, 2-amino-2-(pent-4-en-1-yl)hept-6-enoic acid (stitching residue), C=CCCCC(CCCC=C)(N[*:1])C(=O)[*:2]; B5(19) = 2-amino-2-(pent-4-en-1-yl)hept-6-enoic acid (bis(4-pentenyl)glycine), C=CCCCC(CCCC=C)(N[*:1])C(=O)[*:2]; B5 = 2-amino-2-(pent-4-en-1-yl)hept-6-enoic acid, C=CCCCC(CCCC=C)(N[*:1])C(=O)[*:2]; Phe(3,4,5-F3) = N[C@@H](Cc1cc(F)c(F)c(F)c1)C(=O)O; αAllylPro = C=CC[C@@]1(C(=O)O)CCCN1; S8 = C=CCCCCCC[C@](C)(N)C(=O)O

B1: I-338 (peptide)
peptide: XDAXDDAAFVXFXQ
modifications: not fully specified; N-terminal Ac; PL3 at 1; B5 at 4; S8 at 11; 4CBMF at 12; BztA at 13; C-terminal NH2; stapled PL3-B5 and B5-S8 (olefin metathesis)
notes: Stapled peptide composition; also called Ac-PL3-Asp-Ala-B5-Asp-Asp-Ala-Ala-Phe-Val-S8-4CBMF-BztA-Gln-NH2
In assay [1], B1 returned an IC50 of 5 µM.

Regarding Ac-[αAllylPro]DA[B5(19)]D[dE]AAFV[S8]FWQ-NH2 (staple 1-4, 4-11, Stapled peptide composition) [I-182], the values for the concentration for a half-maximal effect (EC50) in assay [2] and in assay [3] were 2.8 µM and 0.75 µM, respectively.

In the case of Ac-[αAllylPro]DA[B5]NEAAFV[S8]FWQ-NH2 (staple 1-4, 4-11, Stapled peptide composition) [I-198], the results for the EC50 in assay [2] and in assay [3] were 5 µM and 0.538 µM, respectively.

B2: I-199 (peptide)
peptide: Ac-[αAllylPro]NA[B5]DEAAFV[S8]FWQ-NH2
modifications: staple 1-4, 4-11
notes: Stapled peptide composition; this is the earlier-eluting isomer composition
In the case of B2, the EC50 in assay [2] is 5 µM.

B3: I-200 (peptide)
peptide: Ac-[αAllylPro]NA[B5(4)]DEAAFV[S8]FWQ-NH2
modifications: staple 1-4, 4-11
notes: Stapled peptide composition; this is the later-eluting isomer composition
Consider B3, for which, in assay [2], the EC50 stood at 5 µM.

With Ac-[αAllylPro]DA[B5(4)]DEAA[Phe(3,4,5-F3)]V[S8]FWQ-NH2 (staple 1-4, 4-11, Stapled peptide composition) [I-212], the EC50 in assay [2] amounted to 5 µM.

B4: I-181 (peptide)
peptide: XDIXDEAAFQXFWQ
modifications: not fully specified; As printed: Ac-PL3-Asp-Ile-B5-Asp-Glu-Ala-Ala-Phe-Gln-S8-Phe-Trp-Gln-NH2. N-terminal Ac; C-terminal amide; PL3 (1), B5 (4), S8 (11) stapled by olefin metathesis (PL3-B5 and B5-S8)
notes: as for B3
Turning to B4, the EC50 was determined as 0.31 µM in assay [2] and 0.051 µM in assay [3].

B5: I-352 (peptide)
peptide: Ac-[αAllylPro]DA[B5(16)]DAAAFV[S8]FWQ-NH2
modifications: staple 1-4, 4-11
notes: Stapled peptide composition; also called Ac-PL3-Asp-Ala-B5-Asp-Ala-Ala-Ala-Phe-Val-S8-Phe-Trp-Gln-NH2
In assay [1], B5 had a half-maximal inhibitory concentration (IC50) of 5 µM.

Ac-[αAllylPro]DI[B5(5)]DEAAFV[S8]FWH-NH2 (staple 1-4, 4-11, Stapled peptide composition) [I-176]: the EC50 in assay [2] came to 1.99 µM; in assay [3], 0.549 µM.

B6: I-351 (peptide)
peptide: XDAXADAAFVXFWQ
modifications: not fully specified; N-terminal Ac; PL3 at 1; B5 at 4; S8 at 11; C-terminal NH2; stapled PL3-B5 and B5-S8 (olefin metathesis)
notes: Stapled peptide composition; also called Ac-PL3-Asp-Ala-B5-Ala-Asp-Ala-Ala-Phe-Val-S8-Phe-Trp-Gln-NH2
B6 showed an IC50 in assay [1] of 5 µM.

B7: I-348 (peptide)
peptide: XAAXDDAAFVXFWQ
modifications: not fully specified; N-terminal Ac; PL3 at 1; B5 at 4; S8 at 11; C-terminal NH2; stapled PL3-B5 and B5-S8 (olefin metathesis)
notes: Stapled peptide composition; also called Ac-PL3-Ala-Ala-B5-Asp-Asp-Ala-Ala-Phe-Val-S8-Phe-Trp-Gln-NH2
Consider B7, for which, in assay [1], the IC50 was found to be 5 µM.

B8: I-180 (peptide)
peptide: XDIXDEAAFQXFWQ
modifications: not fully specified; As printed: Ac-PL3-Asp-Ile-B5-Asp-Glu-Ala-Ala-Phe-Gln-S8-Phe-Trp-Gln-NH2. N-terminal Ac; C-terminal amide; PL3 (1), B5 (4), S8 (11) stapled by olefin metathesis (PL3-B5 and B5-S8)
notes: as for B2
On to B8, for which the figures for the concentration for a half-maximal effect (EC50) in assay [2] and in assay [3] were 0.561 µM and 0.088 µM, respectively.

Take Ac-[αAllylPro]DI[B5(19)]DEAAFQ[S8]FWA-NH2 (staple 1-4, 4-11, Stapled peptide composition) [I-194]: the EC50 in assay [2] worked out at 1.01 µM; in assay [3], 0.105 µM.

In the case of Ac-[αAllylPro]DI[B5(5)]DEAAFV[S8]FWH-NH2 (staple 1-4, 4-11, Stapled peptide composition) [I-177], the concentration giving a half-maximal response (EC50) in assay [2] turned out to be 1.99 µM; in assay [3], 0.549 µM.

B9: I-350 (peptide)
peptide: XDAXADAAFVXFWQ
modifications: not fully specified; N-terminal Ac; PL3 at 1; B5 at 4; S8 at 11; C-terminal NH2; stapled PL3-B5 and B5-S8 (olefin metathesis)
notes: as for B6
In turn, B9 displayed a 50% inhibitory concentration (IC50) in assay [1] of 5 µM.

B10: I-211 (peptide)
peptide: Ac-[αAllylPro]DA[B5(4)]DEAA[Phe(3,4,5-F3)]V[S8]FWQ-NH2
modifications: staple 1-4, 4-11; not fully specified; printed as Ac-PL3-Asp-Ala-B5-Asp-Glu-Ala-Ala-345FF-Val-S8-Phe-Trp-Gln-NH2
notes: Stapled peptide composition
Turning to B10, in assay [2], the EC50 was determined as 5 µM.

B11: I-179 (peptide)
peptide: XDAXDEAAFQXFWH
modifications: not fully specified; As printed: Ac-PL3-Asp-Ala-B5-Asp-Glu-Ala-Ala-Phe-Gln-S8-Phe-Trp-His-NH2. N-terminal Ac; C-terminal amide; PL3 (1), B5 (4), S8 (11) stapled by olefin metathesis (PL3-B5 and B5-S8)
notes: Stapled peptide composition
For B11, the results for the half-maximal effective concentration (EC50) in assay [2] and in assay [3] were 1.63 µM and 0.152 µM, respectively.

B12: I-349 (peptide)
peptide: XAAXDDAAFVXFWQ
modifications: not fully specified; N-terminal Ac; PL3 at 1; B5 at 4; S8 at 11; C-terminal NH2; stapled PL3-B5 and B5-S8 (olefin metathesis)
notes: as for B7
For the molecule B12, in assay [1], the IC50 was found to be 5 µM.

B13: I-178 (peptide)
peptide: XDAXDEAAFQXFWH
modifications: not fully specified; As printed: Ac-PL3-Asp-Ala-B5-Asp-Glu-Ala-Ala-Phe-Gln-S8-Phe-Trp-His-NH2. N-terminal Ac; C-terminal amide; PL3 (1), B5 (4), S8 (11) stapled by olefin metathesis (PL3-B5 and B5-S8)
notes: Stapled peptide composition
Turning to B13, the half-maximal effective concentration (EC50) in assay [2] is 1.63 µM; in assay [3], 0.152 µM.
